T1: recombinant human IL-25 (R&D Systems) (human, UniProt Q9H293 33-177)
T1 sequence (looked up): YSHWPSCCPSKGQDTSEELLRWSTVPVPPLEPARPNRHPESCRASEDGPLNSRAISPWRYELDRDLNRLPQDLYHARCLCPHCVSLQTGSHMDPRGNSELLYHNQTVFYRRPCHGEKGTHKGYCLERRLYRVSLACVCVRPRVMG


Biological target: T1, recombinant human IL-25 (R&D Systems)
Experiment: cell-based or functional assay

Binder	IC50
ABM125 (Chimera) (antibody, V domains shown, N-glycosylation site in heavy chain CDR1 created by S29N, confirmed biophysically) VH: QVTLKVSGPGILQPSQTLSLTCSFSGFSLNTSGMGVGWIRQPSGKGLEWLAHIWWDDVKRYNPALKSRLTISKDTSGSQVFLKIASVDTADTATYYCARTLPHFFDYWGQGTTLTVSS VL: DIQMTQSPAIMSASPGEKVTISCRASSSVSYMYWYQQKSGSSPKPWIYRTSNLASGVPARFSGSGSGTSYSLTISSMEAEDAATYYCKQYHSYPPTWTFGGGTKLEIKR	0.18 µg/mL
hABM125.34 (antibody, V domains shown) VH: QVTLKESGPTLVKPTQTLTLTCTFSGFSLSTSGMGVGWIRQPPGKALEWLAHIWWDDVKRYNPSLKSRLTITKDTSGSQVVLTMTNMDPVDTATYYCARTLPHFHDYWGQGTTLTVSS VL: DIQMTQSPSTLSASVGDRVTITCRASSSVSYMYWYQQKPGKAPKPLIYRTSNLASGVPSRFSGSGSGTEYTLTISSLQPDDFATYYCKQYHSYPPTWTFGGGTKLEIKR	0.22 µg/mL
